The results in this text go back to article PMC6372009.

The target in test [1] is mini-procollagen III. The test is described as follows: SPR; Biacore T200; mini-procollagen III immobilised (240 RU), C1C2 wild-type or mutants injected, 50 μL/min, 25°C, 10 mM Na-Hepes pH 7.4, 0.15 M NaCl, 5 mM CaCl2, 0.05 % P20; 1:1 binding model.
The target in test [2] is mini-procollagen III. In words: SPR. The note with it: immobilized mini-procollagen III (240 RU), flow rate 50 μL/min, 25°C; for Kd: 1:1 binding model, parent: est. 1.4 nM, read off a plot.

As to “C1C2 fragment of PCPE-1, Arg91Ala mutant (pCEP-Pu construct) (from UniProt Q15113 1-252) (domain or fragment)”, in the test with mini-procollagen III [1], the fold increase in dissociation constant against wild-type C1C2 is 50 fold.
As for “C1C2 fragment of PCPE-1, wild-type control, pCEP-Pu construct (N-terminal APLA, C-terminal …) (from UniProt Q15113) R55A; L234E”, in the test with mini-procollagen III [2], the Kd came to 54 nM.
Take “C1C2 fragment of PCPE-1, wild-type control, pCEP-Pu construct (N-terminal APLA, C-terminal …) (from UniProt Q15113) R55A”: in the test with mini-procollagen III [2] (48 nM C1C2, response at end of association (about 100 s), parent: est. 29, read off a …), the response was determined as 26 RU. Also, the Kd with mini-procollagen III [2] was found to be 2.6 nM.
For “C1C2 fragment of PCPE-1, wild-type control, pCEP-Pu construct (N-terminal APLA, C-terminal …) (from UniProt Q15113) L234E”, in the test with mini-procollagen III [2], the Kd is 20 nM.
For “C1C2 fragment of PCPE-1, wild-type control, pCEP-Pu construct (N-terminal APLA, C-terminal …) (from UniProt Q15113) R55A; R91A; L234E”, the Kd with mini-procollagen III [2] is 120 nM.
For the substance “C1C2 fragment of PCPE-1, wild-type control, pCEP-Pu construct (N-terminal APLA, C-terminal …) (from UniProt Q15113) R91A”, the Kd with mini-procollagen III [2] came to 61 nM.
